Columns and labels:
Human PTK7 protein = molecular target: T1, Human PTK7 protein (Homo sapiens, UniProt Q13308); assay: Relative binding activity to human PTK7 by ELISA
T1 construct: purchased Acrobiosystems PT7-H52H3
T1 sequence (Q13308 31-1070): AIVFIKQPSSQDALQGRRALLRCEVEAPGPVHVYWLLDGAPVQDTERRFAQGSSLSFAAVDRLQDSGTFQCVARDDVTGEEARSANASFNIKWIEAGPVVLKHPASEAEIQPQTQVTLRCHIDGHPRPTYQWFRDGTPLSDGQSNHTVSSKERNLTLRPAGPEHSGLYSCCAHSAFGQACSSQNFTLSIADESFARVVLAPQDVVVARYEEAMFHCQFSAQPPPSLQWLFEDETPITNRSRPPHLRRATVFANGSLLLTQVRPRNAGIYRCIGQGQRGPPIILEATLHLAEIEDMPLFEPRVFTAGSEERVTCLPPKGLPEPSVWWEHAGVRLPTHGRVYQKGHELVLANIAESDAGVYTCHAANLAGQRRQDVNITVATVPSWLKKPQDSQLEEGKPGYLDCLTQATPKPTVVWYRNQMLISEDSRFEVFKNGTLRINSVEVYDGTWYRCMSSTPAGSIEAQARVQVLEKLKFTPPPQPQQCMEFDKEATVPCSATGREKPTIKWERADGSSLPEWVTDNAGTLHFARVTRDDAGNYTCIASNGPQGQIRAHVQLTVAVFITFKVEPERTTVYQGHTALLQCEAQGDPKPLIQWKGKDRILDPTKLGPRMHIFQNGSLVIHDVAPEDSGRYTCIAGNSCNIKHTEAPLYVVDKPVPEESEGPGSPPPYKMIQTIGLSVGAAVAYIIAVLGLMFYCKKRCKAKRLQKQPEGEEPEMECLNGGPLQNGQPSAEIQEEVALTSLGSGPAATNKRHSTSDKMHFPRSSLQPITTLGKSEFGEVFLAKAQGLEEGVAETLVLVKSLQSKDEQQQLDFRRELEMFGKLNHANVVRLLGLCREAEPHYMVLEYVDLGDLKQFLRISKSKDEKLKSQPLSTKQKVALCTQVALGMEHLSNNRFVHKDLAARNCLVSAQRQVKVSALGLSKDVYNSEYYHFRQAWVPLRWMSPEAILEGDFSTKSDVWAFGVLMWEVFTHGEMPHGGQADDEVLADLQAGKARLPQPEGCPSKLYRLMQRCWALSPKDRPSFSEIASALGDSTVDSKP
Method: (§1) Human PTK7 protein (Catalog No. PT7-H52H3, Acrobiosystems), monkey PTK7 protein (Catalog No. PT7-C52H3, Acrobiosystems), and murine PTK7 protein (Catalog No. PT7-M52H3, Acrobiosystems) were incubated at 4° C. overnight and immobilized onto a 96-well plate. The plate was then blocked by incubating at 37° C. with 1% BSA in PBS for 1 h. After blocking, the plate was washed 3 times with PBST (PBS containing 0.05% Tween 20). Serial dilutions of anti-PTK7 antibody as prepared in Example 2 of the present disclosure was prepared in a binding buffer (PBS containing 0.05% Tween20 and 0.5% BSA) and incubated with the immobilized proteins at 37° C. for 1 h. After binding, the plate was washed 3 times with PBST, incubated with peroxidase-labeled donkey anti-human IgG (Jackson ImmunoResearch) diluted at 1/15,000 in the binding buffer at 37° C. for 1 h, washed again, developed with TMB and terminated with 1M H2SO4. The absorbance at 450 nm-620 nm was measured.

monkey PTK7 protein = assay: Relative binding activity to monkey PTK7 by ELISA
Method: as §1

murine PTK7 protein = molecular target: T2, murine PTK7 protein (Mus musculus, UniProt Q8BKG3); assay: Relative binding activity to murine PTK7 by ELISA; details: immobilized protein
T2 construct: purchased Acrobiosystems PT7-M52H3
T2 sequence (Q8BKG3 23-1062): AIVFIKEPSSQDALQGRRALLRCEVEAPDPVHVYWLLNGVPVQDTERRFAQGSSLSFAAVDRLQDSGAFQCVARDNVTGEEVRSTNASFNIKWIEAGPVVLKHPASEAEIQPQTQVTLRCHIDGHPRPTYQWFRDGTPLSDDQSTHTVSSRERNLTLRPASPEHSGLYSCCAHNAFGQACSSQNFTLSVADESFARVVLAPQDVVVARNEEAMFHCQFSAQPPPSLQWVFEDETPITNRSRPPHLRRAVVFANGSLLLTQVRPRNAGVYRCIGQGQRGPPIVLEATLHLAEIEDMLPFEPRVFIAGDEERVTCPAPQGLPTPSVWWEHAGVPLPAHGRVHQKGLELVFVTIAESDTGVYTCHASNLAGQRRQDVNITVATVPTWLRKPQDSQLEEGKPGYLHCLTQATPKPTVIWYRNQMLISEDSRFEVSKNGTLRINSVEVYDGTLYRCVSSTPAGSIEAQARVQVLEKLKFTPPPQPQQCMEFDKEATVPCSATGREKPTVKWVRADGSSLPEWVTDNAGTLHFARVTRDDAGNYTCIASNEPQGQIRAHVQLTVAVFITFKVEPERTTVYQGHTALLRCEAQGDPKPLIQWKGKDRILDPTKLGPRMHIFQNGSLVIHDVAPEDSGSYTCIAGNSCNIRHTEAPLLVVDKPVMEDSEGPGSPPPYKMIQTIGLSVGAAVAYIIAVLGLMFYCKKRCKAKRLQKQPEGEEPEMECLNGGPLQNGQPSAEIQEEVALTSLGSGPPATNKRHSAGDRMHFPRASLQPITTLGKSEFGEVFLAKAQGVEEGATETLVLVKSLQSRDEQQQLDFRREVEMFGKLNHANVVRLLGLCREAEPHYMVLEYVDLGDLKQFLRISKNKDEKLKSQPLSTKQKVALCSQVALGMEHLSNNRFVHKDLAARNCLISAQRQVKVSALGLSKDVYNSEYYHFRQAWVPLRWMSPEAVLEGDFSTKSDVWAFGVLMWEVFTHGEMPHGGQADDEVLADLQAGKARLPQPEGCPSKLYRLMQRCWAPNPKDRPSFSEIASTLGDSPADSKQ
Method: as §1

- binding to human PTK7 protein (Human PTK7 protein; immobilized protein): specifically bind
- binding to monkey PTK7 protein (monkey PTK7 protein; immobilized protein): specifically bind
B1: ch13: human-murine chimeric PTK7 antibody, VH SEQ ID NO: 20, VL SEQ ID NO: 19 (antibody, V domains shown)
VH: QVQLQQSGAELVRPGVSVKISCKGSGYTFTDYGMHWLKQSHAKSLEWIGVISPYYGDVTYNQKFKGKATMTVDKSSSTAYMELARLTSEDSAIYYCARGMGYWGQGTSVTVSS
VL: DVQITQSPSYLAASPGETITINCRASQSISKYLAWYQEKPGKTNKLLIYSGSTLQSGIPSRFSGSGSGTDFTLTISSLEPEDFAMYYCQQHNEYPWTFGGGTKLEIK
- affinity compared with h6M24 (positive control antibody) (Human PTK7 protein; human PTK7): significantly superior over that of h6M24
- affinity compared with h6M24 (positive control antibody) (monkey PTK7 protein; monkey PTK7): significantly superior over that of h6M24
- cross-reaction with mouse PTK7 (murine PTK7 protein): neither ch13 nor h6M24 antibodies cross-react

Source: patent publication US12534541B2, “Anti-PTK7 antibody and uses thereof” (MABCARE THERAPEUTICS, priority 2023, dated 2026)
